Laboratory results: paper PMC10683072 (2023)

B1: PDZ3 PDZ3 (protein)
chain: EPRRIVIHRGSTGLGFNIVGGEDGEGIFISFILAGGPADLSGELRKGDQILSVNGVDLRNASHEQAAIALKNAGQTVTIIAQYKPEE
B2: 2xPDZ3 (two tandem repeats of PDZ3) PDZ3 (protein)
chain: B1 chain

Key:
[1] = target: T1, KQTSV peptide; experiment: diffusion lag time measurement with labeled peptide (Figure S12)
T1 chain: KQTSV

[2] = target: T2, KQTSV peptide (tandem dimer of PDZ3); experiment: as above
T2 chain: KQTSV

Binder | Kd [1] [nM] | Kd [2] [nM]
B1 | 670 | 
B2 |  | 680
